{"source": "paper PMC12343898", "key": {"OsLHY [1]": {"molecular_target": "T1, OsLHY (Oryza sativa, UniProt A0A0P0XBU0 1-719)", "T1 sequence (A0A0P0XBU0 whole entry)": "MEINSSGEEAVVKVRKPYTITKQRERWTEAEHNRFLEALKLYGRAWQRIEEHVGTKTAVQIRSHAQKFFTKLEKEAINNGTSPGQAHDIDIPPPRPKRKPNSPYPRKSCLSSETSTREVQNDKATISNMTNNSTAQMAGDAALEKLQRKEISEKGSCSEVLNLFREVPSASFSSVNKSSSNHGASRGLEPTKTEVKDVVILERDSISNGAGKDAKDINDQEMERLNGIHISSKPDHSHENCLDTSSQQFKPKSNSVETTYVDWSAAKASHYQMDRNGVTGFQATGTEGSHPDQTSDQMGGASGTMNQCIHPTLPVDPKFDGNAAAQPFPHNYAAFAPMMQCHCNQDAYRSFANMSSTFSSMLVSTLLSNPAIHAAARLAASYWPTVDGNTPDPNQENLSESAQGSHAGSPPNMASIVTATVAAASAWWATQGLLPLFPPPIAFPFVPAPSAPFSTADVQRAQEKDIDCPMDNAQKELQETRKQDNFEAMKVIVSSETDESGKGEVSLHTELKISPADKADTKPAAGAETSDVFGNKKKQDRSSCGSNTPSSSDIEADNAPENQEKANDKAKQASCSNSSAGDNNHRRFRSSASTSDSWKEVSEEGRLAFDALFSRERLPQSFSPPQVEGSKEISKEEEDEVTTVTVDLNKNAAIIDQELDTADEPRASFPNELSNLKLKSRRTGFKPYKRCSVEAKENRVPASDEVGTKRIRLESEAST", "experiment": "competition"}, "OsNAC15": {"molecular_target": "T2, OsNAC15 (Oryza sativa, UniProt K9LKF1 1-301)", "T2 sequence": "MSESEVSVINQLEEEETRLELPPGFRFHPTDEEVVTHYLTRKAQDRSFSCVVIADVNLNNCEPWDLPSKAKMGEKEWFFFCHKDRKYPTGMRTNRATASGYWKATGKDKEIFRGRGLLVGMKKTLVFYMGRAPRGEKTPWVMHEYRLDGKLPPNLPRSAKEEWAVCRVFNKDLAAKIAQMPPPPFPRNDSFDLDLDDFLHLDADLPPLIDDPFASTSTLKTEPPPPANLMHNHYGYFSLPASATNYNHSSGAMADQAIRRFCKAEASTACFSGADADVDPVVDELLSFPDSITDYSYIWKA", "experiment": "EMSA"}, "OsLHY [2]": {"molecular_target": "T1, OsLHY", "experiment": "competition", "remark": "listed apart in the source"}, "OsLHY [3]": {"molecular_target": "T1, OsLHY", "experiment": "EMSA"}}, "data": [{"binder": "OsLHY mCold probe, 3x AAGGCGCCC (dsDNA) DNA 1: AAGGCGCCCAAGGCGCCCAAGGCGCCC DNA 2: GGGCGCCTTGGGCGCCTTGGGCGCCTT", "values": [{"measurement": "binding result", "setting": "OsLHY [1]", "result": "no binding"}]}, {"binder": "OsNAC15 Bio-probe, 3x AGCAAGA (dsDNA) DNA 1: AGCAAGAAGCAAGAAGCAAGA DNA 2: TCTTGCTTCTTGCTTCTTGCT", "values": [{"measurement": "binding result", "setting": "OsNAC15", "result": "binds"}]}, {"binder": "OsLHY Cold probe, 3x AAGATATTT (dsDNA) DNA 1: AAGATATTTAAGATATTTAAGATATTT DNA 2: AAATATCTTAAATATCTTAAATATCTT", "values": [{"measurement": "binding result", "setting": "OsLHY [2]", "result": "binds"}]}, {"binder": "OsLHY Bio-probe, 3x AAGATATTT (dsDNA) DNA 1: AAGATATTTAAGATATTTAAGATATTT DNA 2: AAATATCTTAAATATCTTAAATATCTT", "values": [{"measurement": "binding result", "setting": "OsLHY [3]", "result": "binds"}]}]}
